According to patent US20120135923A1, “Use of Melanocortins to Treat Dyslipidemia” (IPSEN PHARMA, S.A.S., priority 2009, published 2012):
Bridge positions count the residues as written; N and C are the ends. Square brackets hold non-standard residues; d marks the D form. Ends that are not written are not given here. Bip = N[C@@H](Cc1ccc(-c2ccccc2)cc1)C(=O)O; 2Nal = N[C@@H](Cc1ccc2ccccc2c1)C(=O)O; d2Nal = N[C@H](Cc1ccc2ccccc2c1)C(=O)O; Bta = N[C@@H](Cc1csc2ccccc12)C(=O)O; hArg = N=C(N)NCCCC[C@H](N)C(=O)O; Nle = CCCC[C@H](N)C(=O)O; Aib = CC(C)(N)C(=O)O; βAla = NCCC(=O)O

B1: Ac-c(Cys-Glu-His-D-2-Nal-Arg-1-Nal-Ala-Cys)-Pro-Pro-Lys-Asp-β-Ala-Tyr-Gly-Arg-Lys-Lys-Arg-Arg-Gln-Arg-Arg-Arg-NH2 (peptide)
peptide: CEHXRXACPPKDXYGRKKRRQRRR
modifications: N-terminal acetyl; X4=D-2-Nal; X6=1-Nal; X13=β-Ala; Cys1-Cys8 disulfide; C-terminal amide
B2: Ac-Nle-c(Cys-D-Ala-His-D-Phe-Arg-Trp-Cys)-(Doc)2-Tyr-Gly-Arg-Lys-Lys-Arg-Arg-Gln-Arg-Arg-Arg-NH2 (peptide)
peptide: XCAHFRWCXXYGRKKRRQRRR
modifications: N-terminal acetyl; X1=Nle; D-Ala3; D-Phe5; X9=Doc; X10=Doc; Cys2-Cys8 disulfide; C-terminal amide
B3: D-Phe-c(Cys-His-D-Phe-hArg-Trp-β-Ala-D-Cys)-Thr-NH2 (peptide)
peptide: [dF]CH[dF][hArg]W[βAla][dC]T-NH2
modifications: disulfide 2-8; N-terminus assumed
SMILES: C[C@@H](O)[C@H](NC(=O)[C@H]1CSSC[C@H](NC(=O)[C@H](N)Cc2ccccc2)C(=O)N[C@@H](Cc2c[nH]cn2)C(=O)N[C@H](Cc2ccccc2)C(=O)N[C@@H](CCCCNC(=N)N)C(=O)N[C@@H](Cc2c[nH]c3ccccc23)C(=O)NCCC(=O)N1)C(N)=O
B4: Ac-c(Cys-Glu-His-D-2-Nal-Arg-2-Nal-Aib-Cys)-Pro-Pro-Lys-Asp-NH2 (peptide)
peptide: Ac-CEH[d2Nal]R[2Nal][Aib]CPPKD-NH2
modifications: disulfide 1-8
SMILES: CC(=O)N[C@H]1CSSC[C@@H](C(=O)N2CCC[C@H]2C(=O)N2CCC[C@H]2C(=O)N[C@@H](CCCCN)C(=O)N[C@@H](CC(=O)O)C(N)=O)NC(=O)C(C)(C)NC(=O)[C@H](Cc2ccc3ccccc3c2)NC(=O)[C@H](CCCNC(=N)N)NC(=O)[C@@H](Cc2ccc3ccccc3c2)NC(=O)[C@H](Cc2c[nH]cn2)NC(=O)[C@H](CCC(=O)O)NC1=O
B5: Ac-c(Cys-Glu-His-D-2-Nal-Arg-Trp-Ala-Cys)-Pro-Pro-Lys-Asp-NH2 (peptide)
peptide: Ac-CEH[d2Nal]RWACPPKD-NH2
modifications: disulfide 1-8
SMILES: CC(=O)N[C@H]1CSSC[C@@H](C(=O)N2CCC[C@H]2C(=O)N2CCC[C@H]2C(=O)N[C@@H](CCCCN)C(=O)N[C@@H](CC(=O)O)C(N)=O)NC(=O)[C@H](C)NC(=O)[C@H](Cc2c[nH]c3ccccc23)NC(=O)[C@H](CCCNC(=N)N)NC(=O)[C@@H](Cc2ccc3ccccc3c2)NC(=O)[C@H](Cc2c[nH]cn2)NC(=O)[C@H](CCC(=O)O)NC1=O
B6: Ac-c(Cys-Glu-His-D-2-Nal-Arg-2-Nal-Ala-Cys)-Pro-Pro-Lys-Asp-β-Ala-Tyr-Gly-Arg-Lys-Lys-Arg-Arg-Gln-Arg-Arg-Arg-NH2 (peptide)
peptide: CEHXRXACPPKDXYGRKKRRQRRR
modifications: N-terminal acetyl; X4=D-2-Nal; X6=2-Nal; X13=β-Ala; Cys1-Cys8 disulfide; C-terminal amide
B7: Hydantoin(C(O)-(Arg-Gly))-c(Cys-D-Ala-His-D-2-Nal-Arg-Trp-Cys)-NH2 (peptide)
peptide: RGCAHXRWC
modifications: residues 1-2 joined in a hydantoin ring (C(O)); D-Ala4; X6=D-2-Nal; Cys3-Cys9 disulfide; C-terminal amide
B8: Ac-Nle-c(Asp-D-Ala-His-D-Phe-Arg-Bal-Lys)-NH2 (peptide)
peptide: Ac-[Nle]D[dA]H[dF]R[Bta]K-NH2
modifications: lactam 2-8
SMILES: CCCC[C@H](NC(C)=O)C(=O)N[C@H]1CC(=O)NCCCC[C@@H](C(N)=O)NC(=O)[C@H](Cc2csc3ccccc23)NC(=O)[C@H](CCCNC(=N)N)NC(=O)[C@@H](Cc2ccccc2)NC(=O)[C@H](Cc2c[nH]cn2)NC(=O)[C@@H](C)NC1=O

How the values were obtained:
hMC4-R (human) [1] = molecular target: hMC4-R (human) (UniProt P32245); assay: cell-based or functional assay
Chain of hMC4-R (human) (P32245 whole entry): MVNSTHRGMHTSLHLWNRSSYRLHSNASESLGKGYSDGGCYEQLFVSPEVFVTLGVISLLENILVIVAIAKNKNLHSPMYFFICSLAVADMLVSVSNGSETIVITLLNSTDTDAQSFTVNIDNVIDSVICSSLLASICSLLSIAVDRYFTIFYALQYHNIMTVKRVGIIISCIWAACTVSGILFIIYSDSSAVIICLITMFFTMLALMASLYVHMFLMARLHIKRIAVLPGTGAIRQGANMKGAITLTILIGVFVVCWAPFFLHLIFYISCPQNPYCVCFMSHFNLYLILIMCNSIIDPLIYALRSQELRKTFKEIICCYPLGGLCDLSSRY

hMC5-R (human) [2] = molecular target: hMC5-R (human) (UniProt P33032); assay: cell-based or functional assay
Chain of hMC5-R (human) (P33032 whole entry): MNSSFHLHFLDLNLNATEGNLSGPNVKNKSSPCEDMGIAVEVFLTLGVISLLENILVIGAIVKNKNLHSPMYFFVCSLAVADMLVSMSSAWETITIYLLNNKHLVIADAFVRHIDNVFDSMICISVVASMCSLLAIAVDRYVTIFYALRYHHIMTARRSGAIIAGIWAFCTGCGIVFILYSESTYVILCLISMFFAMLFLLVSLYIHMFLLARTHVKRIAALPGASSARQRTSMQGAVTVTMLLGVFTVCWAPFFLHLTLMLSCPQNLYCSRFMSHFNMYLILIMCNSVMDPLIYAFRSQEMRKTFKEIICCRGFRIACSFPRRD

hMC1-R (human) [3] = molecular target: hMC1-R (human) (UniProt Q01726); assay: cell-based or functional assay
Chain of hMC1-R (human) (Q01726 whole entry): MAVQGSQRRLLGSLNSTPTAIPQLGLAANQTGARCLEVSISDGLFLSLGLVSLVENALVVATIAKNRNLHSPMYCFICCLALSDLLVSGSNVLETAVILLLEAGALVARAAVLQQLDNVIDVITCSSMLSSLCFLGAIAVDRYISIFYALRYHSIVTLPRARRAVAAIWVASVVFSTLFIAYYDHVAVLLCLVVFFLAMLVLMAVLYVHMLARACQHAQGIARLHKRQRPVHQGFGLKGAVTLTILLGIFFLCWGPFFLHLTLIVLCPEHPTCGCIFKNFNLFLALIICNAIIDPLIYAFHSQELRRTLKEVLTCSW

hMC3-R (human) [4] = molecular target: hMC3-R (human) (UniProt P41968); assay: cell-based or functional assay
Chain of hMC3-R (human) (P41968 whole entry): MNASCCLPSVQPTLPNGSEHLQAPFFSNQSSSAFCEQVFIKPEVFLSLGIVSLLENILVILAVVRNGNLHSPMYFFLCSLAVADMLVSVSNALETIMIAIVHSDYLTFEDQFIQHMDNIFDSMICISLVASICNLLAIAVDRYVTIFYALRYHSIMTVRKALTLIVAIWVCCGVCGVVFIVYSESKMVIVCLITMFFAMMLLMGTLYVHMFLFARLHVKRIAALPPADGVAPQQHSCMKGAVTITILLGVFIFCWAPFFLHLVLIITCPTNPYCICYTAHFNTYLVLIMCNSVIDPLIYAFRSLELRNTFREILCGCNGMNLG

[5] = molecular target: human melanocortin receptor subtype 4 (hMC4-R) (human), P32245; assay: [125I]-NDP-α-MSH competition, membranes
Chain of human melanocortin receptor subtype 4 (hMC4-R) (human), P32245 (P32245 whole entry): as the sequence (P32245 whole entry) above

[6] = molecular target: human melanocortin receptor subtype 1 (hMC1-R) (human), Q01726; assay: [125I]-NDP-α-MSH competition, membranes
Chain of human melanocortin receptor subtype 1 (hMC1-R) (human), Q01726 (Q01726 whole entry): as the sequence (Q01726 whole entry) above

hMC1-R (human) [7] = molecular target: hMC1-R (human) (UniProt Q01726); assay: ratio Ki hMC1-R / Ki hMC4-R, same assay
hMC4-R (human) [8] = molecular target: hMC4-R (human) (UniProt P32245); assay: competition with [125I]-NDP-α-MSH, CHO-K1 membranes
hMC5-R (human) [9] = molecular target: hMC5-R (human) (UniProt P33032); assay: as above
hMC1-R (human) [10] = molecular target: hMC1-R (human) (UniProt Q01726); assay: as above
hMC3-R (human) [11] = molecular target: hMC3-R (human) (UniProt P41968); assay: as above

Row | Binder | cAMP Kb (hMC4-R (human) [1]) | cAMP EC50 (hMC5-R (human) [2]) | cAMP EC50 (hMC1-R (human) [3]) | cAMP Kb (hMC3-R (human) [4]) | cAMP EC50 (hMC4-R (human) [1]) | cAMP EC50 (hMC3-R (human) [4]) | other results
1 | B1 | 5.87 | 1290 nM | 43.3 | 215 |  |  | 
2 | IC[dA]H[dF]RWC-NH2 (disulfide 2-8; also: hydantoin ring from C(O) with Ile1-Cys2) [c[Hydantoin(C(O)-(Ile-Cys))-D-Ala-His-D-Phe-Arg-Trp-Cys]-NH2] |  |  |  |  |  |  | Ki [5]: 41.6 nM; Ki [6]: 53.4 nM
3 | B2 |  | 147 nM | 4.7 |  |  |  | 
4 | B3 |  |  |  |  |  |  | Ki hMC1-R/MC4-R (hMC1-R (human) [7]): 0.04; Ki (hMC4-R (human) [8]): 10.3 nM; Ki (hMC5-R (human) [9]): 521 nM; Ki (hMC1-R (human) [10]): 0.442 nM; Ki (hMC3-R (human) [11]): 123 nM
5 | [dF]CH[d(Et)Tyr][hArg][Bip][βAla][dC]T-NH2 (disulfide 2-8) [D-Phe-c(Cys-His-D-(Et)Tyr-hArg-Bip-β-Ala-D-Cys)-Thr-NH2] |  | 31.8 nM | 0.685 nM |  | 86.9 nM | 81.8 nM | 
6 | B4 | 4.52 | 869 nM | 770 | 221 |  |  | 
7 | B5 | 0.687 | 6.84 nM | 66.1 | 33.4 |  |  | 
8 | [dF]CH[d(Et)Tyr]RW[βAla][dC]T-NH2 (disulfide 2-8) [D-Phe-c(Cys-His-D-(Et)Tyr-Arg-Trp-β-Ala-D-Cys)-Thr-NH2] |  | 0.37 nM | 0.35 nM |  | 0.11 nM | 1.1 nM | 
9 | B6 | 7.37 | 82.9 nM | 29.7 | 25.6 |  |  | 
10 | B7 |  | 103 nM | 96.6 nM |  | 21.2 nM | 13.1 nM | 
11 | B8 |  | > 10000 nM | 0.931 nM |  | 1.65 nM | 3.22 nM | 
